Target: RhoA fused to LexA DNA-binding domain (yeast two hybrid) (human)
Experiment: yeast two hybrid, β-galactosidase activity

B1: M2-9 (906-1004) fused to the VP16-activation domain (yeast two hybrid) (other)
chain: RGLLEEQYFELTQESKKAASRNRQEITDKDHTVSRLEEANSMLTKDIEILRRENEELTEKMKKAEEEYKLEKEEEISNLKAAFEKNINTERTLKTQAVN
B1: no binding.

B2: M2-6 (974-1024) fused to the VP16-activation domain (yeast two hybrid) (other)
chain: KLEKEEEISNLKAAFEKNINTERTLKTQAVNKLAEIMNRKDFKIDRKKANT
B2: no binding.
